Consider 1 substance from US20100055108A1.

One experiment concerns the target human IL-17RA (human) (UniProt Q96F46). As to the kind of experiment: cell-based or functional assay.
Another experiment has as its target human IL-17RC (human) (UniProt Q8NAC3). As to the kind of experiment: cell-based or functional assay.
UniProt Q8NAC3, sequence (Q8NAC3 21-791): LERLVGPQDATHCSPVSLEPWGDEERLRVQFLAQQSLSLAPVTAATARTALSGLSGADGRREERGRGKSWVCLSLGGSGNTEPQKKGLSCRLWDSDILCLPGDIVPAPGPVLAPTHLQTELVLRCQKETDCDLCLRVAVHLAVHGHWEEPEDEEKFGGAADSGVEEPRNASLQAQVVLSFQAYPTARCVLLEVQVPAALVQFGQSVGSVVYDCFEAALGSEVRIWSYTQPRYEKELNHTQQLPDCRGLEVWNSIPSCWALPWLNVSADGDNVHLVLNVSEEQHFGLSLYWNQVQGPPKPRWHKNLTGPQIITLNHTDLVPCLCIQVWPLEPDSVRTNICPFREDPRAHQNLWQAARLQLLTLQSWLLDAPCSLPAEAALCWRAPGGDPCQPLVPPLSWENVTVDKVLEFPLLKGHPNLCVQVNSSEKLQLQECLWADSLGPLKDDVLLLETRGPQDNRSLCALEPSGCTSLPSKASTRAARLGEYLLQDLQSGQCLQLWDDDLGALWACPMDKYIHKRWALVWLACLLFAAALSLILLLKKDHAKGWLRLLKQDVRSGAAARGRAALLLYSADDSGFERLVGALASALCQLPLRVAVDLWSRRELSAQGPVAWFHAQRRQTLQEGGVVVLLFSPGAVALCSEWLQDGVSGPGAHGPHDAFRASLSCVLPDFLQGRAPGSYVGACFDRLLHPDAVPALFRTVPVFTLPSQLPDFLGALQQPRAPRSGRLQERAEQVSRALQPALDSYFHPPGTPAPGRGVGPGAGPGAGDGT

In the experiment with human IL-17RA (human), “recombinant human IL-17A (from UniProt Q16552 20-155) (ligand)” had an inhibition of IL-17A-induced activation of c-Jun (c-Jun mRNA, quantitative RT-PCR) after IL-17RA iRNA knockdown in AGS cells of 80% and an inhibition of IL-17A-induced activation of p65 (DNA-binding activity, TransAM NFkB kit) after IL-17RA iRNA knockdown in AGS cells of 97%. In the experiment with human IL-17RC (human), this substance displayed an inhibition of activation of c-Jun (c-Jun mRNA, quantitative RT-PCR) after IL-17RC iRNA knockdown in AGS cells of 82% and an inhibition of activation of p65 (DNA-binding activity, TransAM NFkB kit) after IL-17RC iRNA knockdown in AGS cells of 89%.
